Experimental data taken from the DeepSol protein solubility set.

Assay: soluble on expression in E. coli; label from the status in PepcDB or PDB records

Sequence | soluble on expression in E. coli
MSLDAEKQLANITMGLPLSPAADSARSARHALSLIATARPPAFITTIAKEVHRHTALAANTQSQQSIHTTTLARAKGEILRVIEILIEKMPTDVVDLLVEVMDIIMYCLEGSLVKKKGLQECFPAICRFYMVSYYERSHRIAVGARHGSVALYDIRTGKCQTIHGHKGPITAVSFAPDGRYLATYSNTDSHISFWQMNTSLLGSIGMLNSAPQLRCIKTYQVPPVQPASPGSHNALKLARLIWTSNRNVILMAHDGKEHRFMVEGHHHHHH | not soluble
MSLDAELVDWELAVTTAKKLVRPGPQRSRAEADEIVSELRRLAVVAEGHVQDYTQLVPAGPPTPIAVVDRPEWVRSNVAGLRVATMPLIEKLSDQSRGRLAAAVGRRVTGVQVGSALAYLAGKVLGQFEVFLPPEEYEAGSAASAPSLAKPGAPTPVGRLSLVAPNIAHAEETLRVVPRDFRLWVCLHEQTHRSQFTAVPWLREHLESEIAAFIGATDLDPDVLADRLRSAVTALRSAVRDHGPDTPSVVEALQTPAQRAVLDRLQALMSLLEGHADQVMDAVGPQVVPTVADIRGKFDNRRSGGSPIDRFLRRLLGLDLKMQQYRQGGAFVRAVVAEVGVEGFNHVWQSPRTLPTRPELTDPGAWMLRVLGTREGHHHHHH | soluble
MSLDAPRFHIEEIRFSERDVALRLPFRFGAATVTACPQVYVRARIRFENGGTAEGCAAEMMVPKWFDKNPALSNEQNFEQLRCALRAARAAYVAEDGAQTAWTHFASNYAALQARAKAKGLQALVASYGPALIDRAVMDALCLRSGTSFATAMRANLCGIDIAGSGLADDLAGFDMPAFLASQSPRASIAARHTVGLADAIDDSDALPDAPADGLPTTLAEAVKRYGLTHFKPKLCGNTAQDISRLERIARVIDGHAQLVTLDGNEQYADADDFAVFLDRMLSTPVLWKLAQKTVFVEQPIRRDAALQRSVSAPGKRIPLLIDESDATLDAFVQARALGYTGVSSKSCKGFYKSVVNAARCAHWNAAEDKPRYFLSGEDLTMQAGIGVQQDLALVGWLGLSHVERNGHHYVNGLAAVPEAEQQALLKLHPGLYEPGDGAVRLAIRGGQLPLAPLAAAPGFATGIPGAGISWDAMRSVYEGHHHHHH | not soluble
MSLDDERTQVLLKRDSEVFLHQAMSTPCLDTLDAAEGIYIQDATGKKYMDFHGNNVHQLGYGHPHVIKRVQEQIAKLPFSPRRFTNETAIECAEKLTQICGGELNRVLFAPGGTSAVGMALKLARHITGNYKVVSLWDSFHGASLDAISVGGEACFRQGMGPLMAGVERIPPAVSYRGAFPVADGSDVHYADYLEYVIEKEGGVGAFIAEAVRNTDVQVPSKAYWKRIREICDKHNVMLIIDDIPNGMGRSGEWFTYQAYDIEPDMLCIGKGLGGGLVPIAAMVTKDKYNTAEQISMGHYTHEKSPIGCAAALATMEAIEQDGLLDKVKADSQFMREKLLEMKAKYPVIGDVRGIGMLWGIELVTDHESKARAYDEAEAVLYQCLNNGVSFKVSQGNVIQLSPPLIITREQLTEALAIFEEAIAKVCKEGHHHHHH | not soluble
MSLDDLAQLANEVKASFVRLVNEDANSHMIGTAMSTIGRAFTQRIIELVEAELGAAPLPYCFVAFGSMGRDEQLIVTDQDNALILDDRYDVQQHGAYFAQFAELVCRGLDRCGYPLCDGEIMASNPKWRMTRKEWETCFADWIDNPNPQALLNASIFFDLDGVYGRTKWAEQLSGFIVRRARRNQRFLACLARNALNRTPPLGFFKNFVMEKDGRHNNSINLKRRGTAPLADLIRVHALAAGSRAKNSFERLDDVIEAGLLPQGKGKDLRDALEFIAMVRIRHQAIDVEQEGHHHHHH | not soluble
MSLDDRSIRAEERSDKLMNLKIKNITCSIKKVPLKRPFITALHKVTEIEGLKIVVELSDGQTGTGTATPNEKVTGDTLQSSLDIVNQVIKPALINQDFKNWNKLLTTLQTCIVHNTAAKAAMDIALYQLKAKENNESLVNLLGSEKGKLTTDYTISIGSDDHMVSEAKSLVKDGFTAIKIKLGNNSVSHDIKTIQKISKAVGPDISLRIDCNQAWNYKDTLKASRIWAQDNLNIDFIEQPVLKDAISDLTLLSENSPYPIMADESVASYQDAINLIKHHACDYINIKLMKTGGLSEAIKINDLAQACGIKTMVGCMIEPVESIAAAAAFAVANKNVKFIDLDSIFMATQDPDLGKYLKIKNNEIILKDEGHHHHHH | soluble
MSLDEDAQISAVQDGFINFYADDAVTPYVALAARGPWVITLKGAVLYDAGGYGMLGFGHTPEAVLDAMARPQVMANVMTPSLAQRKLDRALRAEIGHTRGGCPFARFMCLNSGSEAVGLAARIVDTNAKLHTDPGARHAGATIKRLVVKGSFHGRTDRPGLYSDSSRKTYSKYLASYRDEDSVIAIAPYDIAALQRAFDEAARNHWFIEAVFLEPVMGEGDPGRALPAEFYAAARTLTRNHGSLLLVDSIQAGLRAHGVLSVVDYPGFEQLDPPDLETYSKALNAAQYPLSVLAVTEQAAQVYRKGTYGNTMTTNPRALDVACATLALFTPQIRDNIRLRGAQALRKLEALQAELGGLITKVQGTGLLFSCELAPQYKCYGAGSTEEWLRHHGVNVIHGGENSLRFTPHFGMDEAELDLLVGLIAKALKEGPRQAQAEAEGHHHHHH | not soluble
MSLDEVSQKPHERLAAWLAEDMAAVNGLIRERMASKHAPRIPEVTAHLVEAGGKRLRPLLTLAAARLCGYEGPYHIHLAATVEFIHTATLLHDDVVDESHRRRGKPTANLLWDNKSSVLVGDYLFARSFQLMVETGSLRVMDILANASATISEGEVLQLTAAQDLRTTEDIYLQVVRGKTAALFAAATEVGGVVAGVPEAQVEALHAYGDALGIAFQIVDDLLDYGGVDAQIGKNTGDDFRERKLTLPVIKAVAQADAEERAFWQRVIEKGDQREGDLEQAHAIMSRHGAMEAARQDALRWVTVAREALGQLPEHPLREMLHDLADFVVERIAEGHHHHHH | soluble
MSLDFVIEMLGIRKEFSGFVANDNITLQLKQGEIHALLGENGAGKSTLMNVLFGLYEPDGGEIRVRGTKENINSPNKANELGIGMVHQHFMLVDKFTVAENIILGKEPSKLGVIEKKKAIEEIKEISDRYGLRVDPNAVVRDISIGMQQRVEILKTLYRGADILIFDEPTAVLTPQEIKELIQIMRSLIKEGKSIILITHKLKEIMDVCDRVTVIRRGKGMGTVNVPETTPQDLANLMVGREVVFTTEKIDAKPGKDVLEVKDLVVKESRGVESVRGLNLTVRAGEIVGIAGVDGNGQSELISAIAGLSKVTSGSILLNGEHIENKKPRKITEAGLGHIPEDRHKHGLVLEMSLGENIALQTYYKKPISSKGFLNHKAMYDFARELIEEYDVRASSEYVAAKSLSGGNQQKAIIAREIHRNPDFLIAAQPTRGLDVGAIEFIHRRLIEQRDNGKAVLLMSFELDEIMNVSDRIAVIYEGKIVAIVDPKETTEQELGLMMAGSSKQEAEMGEKEGHHHHHH | not soluble
MSLDIQIQYSTDWKEEFLKRLEDGGPWSNWEMGKLAYEAANYQVIPEFHGLQAPKHLPQLQPFPHQMEVAQTVIEQMNGKAILADEVGLGKTIEAGLILKEYMIRGLAKKVLILVPASLVSQWAYELSSKFYIPAIPQKKAYVWEQYDVVVASIDTAKRQPHRDIVLNQHYDLVIIDEAHKLKNPKTKNYAFIKSLKRKYCLLLTATPVQNKLEEIFNLVSLLKPGHLGDLESFEKEYRANKRAPKNEDKLKELVNKVMVRNRREETGIEWTKRIVQTVPITFSEGERAFYHAITKLKQQPDVMTNSFSLLTLQREICSSREAAFMTLKNMITKLEQEGRTSPILESLIEQVGTIEGHAKAEKALELIQQINDKVIIFTEYRATQLYLQWYLKQHGISSVPFRGGFKRGKKDWMRQLFENRAQVLIATEAGGEGINLQFCHHIINYDLPWNPMRIEQRIGRIHRLGQTEDVRIYNFAVKDTIEEQILTLLYEKIQLFERVVGELDDILTKMNVGSIEEHIRDIFVHSDSEGEMKIKLDHLSAIMNDVANEKEEDHATGATASVSDALLEGHHHHHH | not soluble
MSLDIRGMTVEEAEPVVKKFIDDLMMNGISKGYIIHGKGTGKLASGVWEILRKDKRVVSFRFGTPSEGGTGVTVVEVKEGHHHHHH | not soluble
MSLDKIMNEAISPWMKGDGPDSDIVLSSRIRLARNFKQYQFSTMQNEEEAQKVQELFKKKFINKAVEPFGKFGLLKMNELTPLQRRVLVEKHLISPNLAGTEYGACLLSESEHISVMLNEEDHIRIQCLFPGLQLSKALQSANQIDNWIEKEVEYAFDESLGYITSCPTNVGTGLRASVMIHLPGLVLTKRISRIIQVIQKLGLVVRGIYGEGSEALGNIFQVSNQMTLGKSEEDIIADLKSVMQQIIQQEKLARELIVQNSSIELEDKVYRSYGILANSRLIQSAEAATCLSDVRLGIDLGYIKGISRNILTELMVLTQPGILQQYAGGPLGPEERDYRRATLIRERLRIEKN | not soluble
MSLDKSIPVPEPSRMITGIKVHKISDVITYQGMISLTYDNNKRLTRIYSSSPLAAVNYTYKENSEVSYTYSTENSPLVEISTSLENGRSYVCKFSNRENPVTYSYDNEGYLKSCNNNGTVLEYNWESGNLSSITTTPRGTYNSDYRVSNIANDYSLDLNTLAQWIDDRENYTTVMNTFGQMAEILGKRSANILEDTYYIYDYSFRQDGRLKDMTLMGGSENIGYSFRFSYADDTEVSEGHHHHHH | soluble
MSLDLEFHGVMRFYFQDKAAGNFATKCIRVSSTATTQDVIETLAEKFRPDMRMLSSPKYSLYEVHVSGERRLDIDEKPLVVQLNWNKDDREGRFVLKNENDAIPPKAQSNGPEKQEKEGVIQNFKRTLSKKEKKEKKKREKEALRQASDKDDRPFQGEDVENSRLAAEVYKDMPETSFTRTISNPEVVMKRRRQQKLEKRMQEFRSSDGRPDSGGTLRIYADSLKPNIPYKTILLSTTDPADFAVAEALEKYGLEKENPKDYCIARVMLPPGAQHSDEKGAKEIILDDDECPLQIFREWPSDKGILVFQLKRRPPDHIPKKTKKHLEGKTPKGKERADGSGYGSTLPPEKLPYLVELSPGRRNHFAYYNYHTYEDGSDSRDKPKLYRLQLSVTEVGTEKLDDNSIQLFGPGIQPHHCDLTNMDGVVTVTPRSMDAETYVEGQRISETTMLQSGMKVQFGASHVFKFVDPSQDHALAKRSVDGGLMVKGPRHKPGIVQETTFDLGGDIHSGTALPTSKSTTRLDSDRVSSASSTAERGMVKPMIRVEQQPDYRRQESRTQDASGPELILPASIEFRESSEDSFLSAIINYTNSSTVHFKLSPTYVLYMACRYVLSNQYRPDISPTERTHKVIAVVNKMVSMMEGVIQKQKNIAGALAFWMANASELLNFIKQDRDLSRITLDAQDVLAHLVQMAFKYLVHCLQSELNNYMPAFLDDPEENSLQRPKIDDVLHTLTGAMSLLRRCRVNAALTIQLFSQLFHFINMWLFNRLVTDPDSGLCSHYWGAIIRQQLGHIEAWAEKQGLELAADCHLSRIVQATTLLTMDKYAPDDIPNINSTCFKLNSLQLQALLQNYHCAPDEPFIPTDLIENVVTVAENTADELARSDGREVQLEEDPDLQLPFLLPEDGYSCDVVRNIPNGLQEFLDPLCQRGFCRLIPHTRSPGTWTIYFEGADYESHLLREGHHHHHH | soluble
MSLDLISFSVPGNLLLMGEYTILEEKGLGLAIAINKRAFFSFKKSDSWRFFSKKKKIDDFSLIENRSDFVFKMFAYLSQNCFFNLENFAYDVYIDTSNFFFNDGTKKGFGSSAVVAIGIVCGLFLIHNATNVVEKGEIFKYCLEAYRYSQGGIGSGYDIATSIFGGVIEFEGGFNPKCRQLGAVEFNDFYLMQGLQAIKTTTSICEYNKHRNSILDFILKCNLEMKKLVLNASNSKSALISSLRRAKELGLAIGEAIGVSAALPSSFDHLLGQCDLIKALGAGNETFLVYRPNIEAFNLSKIISIVLENEGIKFESDKEGHHHHHH | not soluble
